Data reported in patent US6670160B2, “α1,2-fucosyltransferase” (priority 1998, dated 2003).
Several values for one entry are separate records, joined by “and”; a condition that tells them apart may be missing. Identical values can stand only once.

Tests used:
Assay type in all cases: biochemical
[1] = Reaction products by capillary electrophoresis, TMR-labeled acceptor Le^X; details: acceptor Le^X labeled with TMR; peak co-migrated with standard Le^Y
Excerpt: (§1) The reaction products synthesized from different acceptors by the Hp α1,2 FucT were further characterized by capillary electrophoresis with laser-induced fluorescence detection. The reaction mixture contained the overproduced UA802 α1,2 FucT protein (from pGEMI6 clone), GDP-fucose, and different acceptors labeled with tetramethylrhodamine (TMR). The results (FIG. 7) confirmed the data from the enzyme assay using radioactive labeled GDP-fucose (Table 3B) by identifying the products of the reactions.

[2] = Fucosyltransferase assay (GDP-[3H]fucose), acceptor Type 1; details: for total activity: from 25 ml cell culture
Protocol: (§2) In a typical experiment, E. coli CLM4 (pGP1-2) cells haboring a plasmid carrying an H. pylori fucT gene (pBKHp763fucT39, pGEMH2, pGEMI6 or pGEMB3) were grown in 25 ml liquid LB medium with appropriate antibiotics (kanamycin and ampicillin) at 30° C. to an optical density of 0.5-0.7 at 600 nm. After being collected, the cells were washed once with M9 medium, resuspended in 5 ml of supplemented M9 medium, and farther incubated at 30° C. for 1 h. To induce the expression of the fucT gene, the cell culture was shifted to 42° C. by adding 5 ml prewarmed (55° C.) supplemented M9 medium. After incubation at 42° C. for 15 min, rifampicin was added to a final concentration of 200 μg/ml, and cell growth was continued at 42° C. for 20 min.
(§3) For analysis of the protein on SDS-PAGE, a small aliquot (0.5 ml) of the cell culture was taken, and 2.5 μl of [^35S]-methionine (4.35×10^13 Bq/mmol, 3.7×10^8 Bq/ml, NEN™, Boston, Mass.) was added. After further growth at 30° C. for 30 min, the cells were harvested, resuspended in 100 μl sample buffer (50 mM Tris-HCl, pH6.8, 1% (w/v) SDS, 20 mM EDTA, 1% (v/v) mercaptoethanol, 10% (v/v) glycerol), and boiled for 3 min before loading on to the gel. For the preparation of the sample for the enzyme assay, the remaining part (major aliquot, 9.5 ml) of the cell culture after induction was further incubated at 30° C. for 30 min, then harvested. The cells were washed with 1.5 ml of 20 mM HEPES (pH 7.0), and resuspended in 1.5 ml of this buffer supplemented with 0.5 mM PMSF.
(§4) Preparation of cell lysates or cell extracts for the fucosyltransferase assay. The E. coli cells containing overproduced Hp FucT proteins, which were in HEPES buffer with PMSF as described above, were disrupted with a French press at 7000 lb/in^2 at 4° C. The cell lysates were used directly for enzyme assays. For determining the location of the enzyme activities, the cytoplasmic and membrane fractions were separated as follows. The cell lysates were centrifuged at 13,000× g at 4° C. for 10 min. The cell debris were discarded and the supernatant was subjected to ultracentrifugation at 128,000× g (Beckman TL100/rotor 100.2) at 4° C. for 1 h. The supernatant was collected as the cytoplasmic fraction. The membrane pellets were resuspended in a small volume of the same buffer and treated with 1 M NaCl.
(§5) Assays of Hp α1,2 and a 1,3 FucT activities were carried out according to the method described by Chan et al. (1995, Glycobiology 5:683-688) with some modifications. Reactions were conducted at 37° C. for 20 min in a volume of 20 μl containing 1.8 mM acceptor, 50 μM GDP-fucose, 60000 dpm GDP-[^3H]fucose, 20 mM HEPES buffer (pH7.0), 20 mM MnCl2, 0.1 M NaCl, 35 mM MgCl2, 1 mM ATP, 5 mg/ml BSA, and 6.2 μl of the enzyme preparation. The acceptors used in this study were: LacNAc [βGal 1-4 βGlcNAc], Le^X [βGal 1-4 (α Fuc1-3) βGlcNAc], Type 1 [[…] 1-3 βGlcNAc], and Le^a [βGal 1-3 (α Fuc1-4) βGlcNAc]. GDP-[^3H]fucose (1.9×10^11 Bq/ml/mmol) was obtained from American Radiolabeled Chemicals Inc. (St. Louis, Mo.). Sep-Pak Plus C-18 reverse-phase cartridges were purchased from Waters (Mississauga, ON). For calculation of the specific activity of the enzyme (micro-units per milligram protein), protein concentrations of the cell extracts were determined with a BCA protein assay kit (Pierce, Rockford, Ill.) using BSA as a standard according to the supplier's instructions.

[3] = Fucosyltransferase assay (GDP-[3H]fucose), acceptor LacNAc
Protocol: as §2, §3
(§6) Preparation of cell lysates or cell extracts for the fucosyltransferase assay. […]
(§7) Assays of Hp α1,2 and a 1,3 FucT activities were carried out according to the method described by Chan et al. (1995, Glycobiology 5:683-688) with some modifications. […] For calculation of the specific activity of the enzyme (micro-units per milligram protein), protein concentrations of the cell extracts were determined with a BCA protein assay kit (Pierce, Rockford, Ill.) using BSA as a standard according to the supplier's instructions.

[4] = Reaction products by capillary electrophoresis, TMR-labeled acceptor Type 1; details: acceptor Type 1 labeled with TMR; authentic product H type 1
Excerpt: as §1

[5] = Reaction products by capillary electrophoresis, TMR-labeled acceptor Le^a; details: acceptor Le^a labeled with TMR; authentic product Le^b
Excerpt: as §1

[6] = Fucosyltransferase assay (GDP-[3H]fucose), acceptor Le^a
Protocol: as §2, §3, §6, §7

[7] = Fucosyltransferase assay (GDP-[3H]fucose), acceptor Le^X; details: for total activity: from 25 ml cell culture
Protocol: as §2, §3, §4, §5

[8] = Reaction products by capillary electrophoresis, TMR-labeled acceptor LacNAc; details: acceptor LacNAc labeled with TMR; expected product H type 2
Excerpt: as §1

[9] = acceptor Type 1, cytoplasm fraction
[10] = acceptor Le^x, membrane fraction

B1: α1,2FucT (UA802): H. pylori UA802 α1,2-fucosyltransferase (SEQ ID NO:2), overexpressed in E. coli from plasmid pGEMI6 (protein)
chain: MAFKVVQICGGLGNQMFQYAFAKSLQKHLNTPVLLDTTSFDWSNRKMQLELFPIDLPYANAKEIAIAKMQHLPKLVRDALKYIGFDRVSQEIVFEYEPKLLKPSRLTYFFGYFQDPRYFDAISSLIKQTFTLPPPPENNKNNNKKEEEYQRKLSLILAAKNSVFVHIRRGDYVGIGCQLGIDYQKKALEYMAKRVPNMELFVFCEDLKFTQNLDLGYPFTDMTTRDKEEEAYWDMLLMQSCKHGIIANSTYSWWAAYLMENPEKIIIGPKHWLFGHENILCKEWVKIESHFEVKSQKYNA
- reaction product in electropherogram [1]: a small new peak was produced
- specific activity ([2]; acceptor Type 1, proposed product H type 1, E. coli whole cell extract): 309 ± 28 μU/mg
- relative activity (percentage of the total activity) [2, 9]: 100%
- specific activity ([2]; acceptor Type 1, cytoplasm fraction of E. coli CLM4 (pGP1-2, pGEMI6)): 78 μU/mg protein
- total activity [2, 9]: 108 μU
- specific activity ([2]; acceptor Type 1, membrane fraction of E. coli CLM4 (pGP1-2, pGEMI6)): 8 μU/mg protein
- total activity ([2]; acceptor Type 1, membrane fraction): 3 μU
- relative activity (percentage of the total activity) ([2]; acceptor Type 1, membrane fraction, listed as H. pylori α1,2 FucT): 3%
- relative activity (percentage of the total activity) ([2]; acceptor Type 1, membrane fraction, listed as Hp α1,2 FucT): less than 3%
- relative activity ([2]; acceptor Type 1, relative to UA802 α1,2 FucT on its best substrate Type 1): 100%
- activity compared to Le^X ([2]; acceptor Type 1 versus Le^X): 2 fold
- specific activity ([3]; E. coli whole cell extract containing the overexpressed FucT protein): 14 ± 8 μU/mg
- α1,2 FucT activity (in words) ([3]; enzyme from pGEMI6): almost no activity was detected
- relative activity ([3]; relative to UA802 α1,2 FucT on its best substrate Type 1): 4.5%
- reaction product in electropherogram [4]: new peaks co-migrating with authentic products
- reaction product in electropherogram [5]: new peaks co-migrating with authentic products
- activity compared to Le^X ([6]; acceptor Le^a versus Le^X): 2 fold
- specific activity ([6]; acceptor Le^a, proposed product Le^b, E. coli whole cell extract): 301 ± 13 μU/mg
- relative activity ([6]; acceptor Le^a, relative to UA802 α1,2 FucT on its best substrate Type 1): 97%
- specific activity ([7]; acceptor Le^X, proposed product Le^Y, E. coli whole cell extract): 150 ± 33 μU/mg
- α1,2 FucT activity (in words) ([7]; acceptor Le^X, enzyme from pGEMI6): considerable activity was observed
- activity in the membrane fraction (in words) ([7]; acceptor Le^X, membrane fraction): no detectable activity
- relative activity ([7]; acceptor Le^X, relative to UA802 α1,2 FucT on its best substrate Type 1): 49%
- relative activity (percentage of the total activity) ([7]; acceptor Le^x, cytoplasm fraction): 100%
- specific activity ([7]; acceptor Le^x, cytoplasm fraction of E. coli CLM4 (pGP1-2, pGEMI6), listed as H. pylori α1,2 FucT): 41 μU/mg protein and 38 μU/mg protein
- total activity ([7]; acceptor Le^x, cytoplasm fraction, listed as H. pylori α1,2 FucT): 54 μU and 49 μU
- relative activity (percentage of the total activity) [7, 10]: 0%
- specific activity ([7]; acceptor Le^x, membrane fraction of E. coli CLM4 (pGP1-2, pGEMI6)): 0 μU/mg protein
- total activity [7, 10]: 0 μU
- reaction product in electropherogram [8]: no reaction product representing H type 2 was observed
